In patent US20150024453A1, “INTEGRATED PROCESS FOR DUAL BIOCATALYTIC CONVERSION OF CO2 GAS INTO BIO-PRODUCTS BY ENZYME ENHANCED HYDRATION AND BIOLOGICAL CULTURE” (CO2 SOLUTIONS INC., priority 2012, published 2015):

Assay: Tests of carbonic anhydrase activity in carbonate absorption solutions
Type: biochemical
Text: The absorption solution that is fed to the enzymatic bicarbonate production unit may be a sodium carbonate solution having a sodium carbonate concentration between about 0.3M and about 2.4M (temperature being between about 30 t for a concentration of about 2.5M) or a potassium carbonate solution having a potassium carbonate concentration between about 1M and about 2M. Tests have confirmed that carbonic anhydrase has good activity in sodium carbonate between 0.3M and 0.5M and in potassium carbonate at 1.45M. Halophile-type carbonic anhydrase, with elevated resistance to salt, may be used for higher concentrations. As opposed to carbonates, bicarbonates are less soluble (two times less approximately) and, therefore, if precipitation occurs, it would be of bicarbonate salts rather than carbonate salts. Cooling the ion loaded solution exiting the enzymatic CO2 capture unit may also encourage precipitation, as the solubility of bicarbonates and carbonates would be lowered. For sodium bicarbonate, temperature may be carefully adjusted since below about 30° C., a solution at 2.5M would not be soluble. The following Solubility Table may be used to set, adjust or control the carbonate or bicarbonate concentration as well as temperature in the enzymatic bicarbonate production and CO2 capture unit: […]

## carbonic anhydrase
In potassium carbonate at 1.45M
  enzyme activity: good activity
In sodium carbonate between 0.3M and 0.5M
  enzyme activity: good activity
